Measured values as given in a protein production outcome set (Wang et al. 2014).

Test: label from the status in PepcDB records

Sequence: MTDDRPPLPPFTRATAAQKVQAAEDAWNTRDPHKVSLAYSPDSVWRNRDTFVTGRAAIVELLTAKWAREREYALRKDLWAFDGNRIAVRFQYECQDADGQWWRSYGNELWEFDEHGLMTRREAGIHDVRIEERERRILGPRPEAERGRSFPVQ
- protein production: failed

Sequence: MSFFNKIILIGRLVRDPEERYTLSGTPVTTFTIAVDRVPRKNAPDDAQTTDFFRIVTFGRLAEFARTYLTKGRLVLVEGEMRMRRWETPTGEKRVSPEVVANVVRFMDRKPAETVSETEEELEIPEEDFSSDTFSEDEPPF
- protein production: not failed

Sequence: MRTPAWLGSGMPLLFVLLWSTGFLGAKFGLPYAEPFTFLAIRLLLAAALLAAFALLSGAPWPGSARLAGHVAVAGLLVHGLYLGGVFLAIEHGMSAGLTSLLVGLQPLATAALAGIWLGEQVSRRQWLGLALGLAGVALVVLGRIHGGADGLAWAAVLVALAAITCGTLYQKRFCGGMDLRTGGVVQYLASGALLGLAALLFESREVQWSTPFVLTLGWLVLGLSFGAVGLLYTLIRHGAASKVASLFYLVPPVTALASWLLFDERLAPAAIGGMLLVMLGVALVNWPGRRA
- protein production: failed

Sequence: MKQKNAYNRLTNHYDDVLTGRKWWSWLYMHCLWKTDDNIIAGSVLDMIPGNFEGRILDVPVGTAIFTYDKYRRMPQAEIVGLDYSQEMLDIAAMRFSAEQITNVSLRQGDVGSLPFPDAAFDLVLSMNGFHVFPDKDRAFAETFRVLRGGGLFCGCFYVKGERKPADWFVRKFLDKKGLFRPPHYTREEAIEKLRSLYGDNVEIQDARSLLVFKCTKPRLEHHHHHH
- protein production: not failed

Sequence: MYSLFQEGRKMKNTAFLITKNHYPKDYRLKKSPDSDSAMGVAKRILAEVMIFRRVPETISLCGTGCQKCASPHLPKIISAVNKNEPVTFILPAFPGKSPNPEKVLGHLPDHAERLSLNFLGTLCQRIKNFYTPGIKIILCSDGRVFSDVVGMNESDVTAYQLELDRLIKEMSLADLSTFNLDYFYKDLHFVQMREELMKSYGQSLDFLKQKIRNGAKPSASPDEQEANRMYSGITRFLFEDAMHAGQTKSRTAIQKESRFKAYEVIRRSNAWSALIAERFPKAVRLSIHPQTCGSKKLGIRLIGNESWMTPWHGVAVESNKGYVLLRRSEAEALGAKLICSSDGRHSHYQLMAEVSYELLEHHHHHH
- protein production: not failed

Sequence: MLQTIKRADSAVSIIGAGIAGAWQALLFAQAGHAVTLHERGDAAMTDSTSHWAGGMLAPWCEAEVAEPIISRLGQRSLDIWRRELPDTPFNGSLVVAHPRERNDFERFARMTEEHRRLDAASLAELEPSLEGRFRDALFFPTEGHVEPRRVLPKLHERIRAAGGTIKFSSDVSAADLDGIVIDCRGLSARDEQPDLRGVKGEMILIETSEVQLARPVRLIHPRWPLYVIPREDNLFMLGATSIEAEDTGVSVRSALELLGAAYTVHPAFGEARIVEFGSGLRPAFPDNLPRIGIRGGRITVNGLYRHGFLIAPALAELTLQYVQRGQIDNEVMQCG
- protein production: failed

Sequence: MGHHHHHHSHMALRDLCVVLLNGQHLEVKCDVESTVGAVFNAVTSFANLEELTYFGLAYMKSKEFFFLDSETR
- protein production: failed

Sequence: RETLDNLSEAVAVFGSNGCAQLFNPPFARMWNLSAEALQSQPHIEAIEEWCRPLFDDDVFWQALRGAITGIDDRRHVLLKIERKDGSVLACKTMPLPDGATMLTFQDITDTENVERALRERNEALETADRIKIDFVHHVSYELRSPLTTIIGFA
- protein production: failed

Sequence: MNRTLAYKLGAIALLILLLLIPLLMIDGLIRDRQEVRDGVLQDIARSSSYSQRLTGPLLVVPYRRTVREWVTEEKTEKRVLQEREQRGELYFLPDRFALDGQMRTELRYRGIYQARLYHVDNKVAGYFQVPAHYGIEEDLEDYQFETPFLAMGISDIRGIENALRLSLNGASVDFEPGSRVGLLGSGVHAPLQGVDGRQAQRLEYAFDLSLLGSERLDIVPVGRDSQVILKADWPHPSFGGEFLPSEREITAQGFTARWQTSFFATNMEEALRSCVEEQRCDGFQARAFGVGLVDPVDQYLKADRAIKYALLFITLTFAGFFLFEVLKRLAVHPVQYALVGLALAFFYLLLLSLAEHVGFELAYLVSAGACVGLIGFYLCFVLRSVARGLGFSVGLAGLYGLLYGLLSAEDYALLMGSLLLFAVLAAVMVLTRRLDWYGVGRKDFPAVPARA
- protein production: failed

Sequence: MGFTDSIREHVREHRTGMVHDLMFAVVWVAIVNFLFSAVFTDAPSWAFYMFMLAGIPAYFGFFFSLSMARAQQDSQ
- protein production: failed

Sequence: MKCRGHKNSYFCQDSNEIKSANSNSPLCGDHSFFEMATKQRKGSRSSGRNTSSANTRKGGNFLRRIFITPIRDTFSRDKVGFVFGAILLAIALYTTIAIGSFFVHGGVDQSVVRDAPVSDILLGRAPVANLCGIRGAVWSEWLMNGLFGFGTLFLLFCVFSLSLKLMGVVKRISVVKRLIFCGVMTFWTSLAAAFIYKLSGLEGFLRWGGMHGQEWTLFLERNIGKAGLIIVLLVLAVIIAVVVRSECMGFFRRLLGLSWISIPKLPKKERKNNHDESENESLGNGYDTGESENLSGYLNNSEYEDGPAGESADDPDDYIPPHKEEGENDSSQSIQMGSMTVELAQEEEKADEALLAEIKTDPRMDLASYKFPSVDLLTQYDLQQPPIDMNEIEENQKRIIATLDSFKIHVTPIKATVGPTVTLYEVAPDSGIKISRIRNLEDDIAMSLKAVGGIRIIAPMPGKGTIGIEVPNRKPQTVSMYSVLTSKKYQESDMDLPVALGKTITNEVFIFDLCKMPHLLIAGATGQGKSVGLNAMITSLLYKKHPAELKFVLVDPKMLEFAVYEAIERHYLAKLPDEDRAIVTDMTKVVPTLNSLCIEMDNRYRMLTEARVRNIKEYNDQIISGKLSRLHGHKFLPYIVLIVDEFADLIMTSGKEVERPITRIAQKARAAGIHMVVATQRPSTDIITGIIKANFPARIAFKVFSMIDSRTILDQPGANQLVGRGDMLFYQGKDTVRLQCAFLDTPECEAVTHHISLQESYTSAYELPEYVPEGEEGGPKAFNPQEKDPLFEEVARMVVNSQQGSTSNIQRKFNIGYNRAGRLMDQLEGAGIVSPQDGSKPRQVLIQDEMSLERLFETLR
- protein production: failed

Sequence: MSKPPPKPVKPGQVKVFRALYTFEPRTPDELYFEEGDIIYITDMSDTSWWKGTCKGRTGLIPSNYVAEQAESIDNPLHEAAKRGNLSWLRECLDNRVGVNGLDKAGSTALYWACHGGHKDIVEVLFTQPNVELNQQNKLGDTALHAAAWKGYADIVQLLLAKGARTDLRNNEKKLALDMATNAACASLLKKKQQGTDGARTLSNAEDYLDDEDSD
- protein production: failed

Sequence: MAKAGGITNAVNVGIAVQADWENREFISHISLNVRRLFEFLVQFGKPHSLTYFSVLGFEFN
- protein production: failed

Sequence: MSAVATFSVALANEVATVRLMAEVALLIGPGDVVTLSGDLGAGKTAAARAMIRYLADDDALEVPSPTFTLVQTYDLPPYPLLHADLYRVEDPSELEEIGLSPLPDGTVALIEWPERAGAALPEDRIDIALSHRPALGPSARAAEITGHGKAVKQVERLAALRSFIETAGYADAERRHMPGDASTRSYARLQRGAESVILMNAPRRPDGPALYAGKSYSAAVHLAEDVRPFVAIGQGLRERGFSAPAIHHADLDAGFLITEDLGRIGFVEGDPPAPVVARYQAATDMLAALHAKPLPDHLPLSTRESYAVPTFDEAAMMIEVGLMPEWYLPDRGAPPSEALRVEFVALWRKLLAGIATAPRTWVLRDYHSPNLIWLEDRPGIERVGVIDFQDTVLGPAAYDVVSLLQDARIDVPEAAELSLLGRYVKARLAADPEFDAPGFARLYAVMSAQRNTRLLGTFARLNRRDGKPQYLKHQPRVWAYLARSLAHPALAEVRAWYRDHVPPPL
- protein production: failed

Sequence: MEIRNVKGTKDYLPEEQVLRSKIKRACEDTFERYGCKPLETPTLNMYELMSYKYGGGDEILKEIYTLQDQGKRDLALRYDLTIPFAKVVAMNPNIRLPFKRYEIGKVFRDGPIKQGRFREFIQCDVDIVGVESVMAEAELMSMAFELFQTLNLEVTIQYNNRKLLNGILQAINIPTELTSDVILSLDKIEKIGIDGVRKDVLERGISEEMADTICNTVLSCLQLSIADFKEAFNNPLVADGVNELQQLQQYLIALGINENTIFNPFLARGLTMYTGTVYEIFLKDGSITSSIGSGGRYDNIIGAFRGDDMSYPTVGISFGLDVIYTALSQKETISST
- protein production: not failed

Sequence: MSVWLLQMKTNAIITDITKSIVKMDRILVYRHTNPDPDAIGAQFGLVALLKAAYPEKLVVAMAPVPGHLAWIDTTDEQLVTPQATDLVIAVDCANHERLAGELPTGAFVIKIDHHPNHDPYGQLNWVDETYSSCSEMIYELAQAGCFTVTAAVATKLYAGIIGDTVRFSTPETSTRTLKIASALAATDIDIATISHHEMDLTPALSKLYGYVLSEQTIEPSGLAHVVLPQRIFSDLSLEYGDEDALVPLPGNLTTVKVWLFFIETPQGQYRVHFRSKAINVNAVAKAFNGGGHPLASGAFVPDLATVGQVIEQMQAQVLAATAVDLEHHHHHH
- protein production: failed

Sequence: MPLPKSLKYGDTIGIYSPSSPVTYTSPKRFERAKSYLLQKGFHILEGSLTGRYDYYRSGSIQERAKELNALIRNPNVSCIMSTIGGMNSNSLLPYIDYDAFQNNPKIMIGYSDATALLLGIYAKTGIPTFYGPALVPSFGEFEPFVDDTYKYFLETLLHDQALPYNIKQPLFWSDEFINWEEKTKEKELRPNNWISVTNGQATGRVIGGNLNTIQGIWGSPYMPCIQEGDILFIEDSSKDAATIERSFSFLKINGVFDKVSGIILGKHEQFDDCGTNRKPYEILLEVLQNQRIPLLADFDCCHTHPMITMPIGVQVKMDATNKTIHILEKWKI
- protein production: not failed

Sequence: MQSILKPITNLFTMIFQAIHGFVASLDIFGVGAGYVITIFLLTLLVRLILLPLNIKQTRSQQKMQEIQPEIAKLQKKYKNNPEKAQQEMMKLYKENNVNPMSGCLPLLIQMPILFALYYVFTGLTELQGVSFLWLGDLWAPDRTFILPILSAATTYLSSLLMTKFTQSQAGGAPGGMNMNTMNIVMAGMMGVMSIQFPSMLVLYWVIGNLIQMVQTYFIVVLPSRKRAKEKEQYKDIK
- protein production: failed

Sequence: MWKRASRRAGLRRRAVAQPVPPAELGGTAFSSVLEQLELECRAMVSYALKQGLAMSPDLPGRLAELRVMPGASLHGESGARELAGLHRQLVRAIQPATPQAVVLIERERLRGGWLRWLGPIPLIRTLTLTSVGCLASVVGLAMSSLVNERNITLGFLDSSGSTLGWNVMFILACAGLGAAFSALFQAHRYVADATYDPRFDSSYAARMILGLIAG
- protein production: failed

Sequence: FTPDYIFTSKIDTSYVRQDIVPEINGWNIDRWIEEIACNDNQVVKLLWQVINDSMNGNYTRKKAIFFVGDGNNGKGTFQELLSNVIGYSNIASLKVNEFDERFKLSVLEGKTAVIGDDVPVGVYVDDSSNFKSVVTGDPVLVEFKNKPLYRATFKCTVIQSTNGMPKFKDKTGGTLRRLLIVPFNANFNGIKENFKIKEDYIKNQQVLEYVLYKAINLDFET
- protein production: failed

Sequence: MMKLVCPSYIAKRKDSLAFKLFSYMTAIVISILLVQALAEQALVKAMLKVPNSVKMEMLDLAHQANVLIEHGDMDELADWANAQQFYLFVLNEQLQPVTHRLMHPHFEFKLQFKRSIDDQLEDKVNRPIISIPLVQQHNLVIQLPHRLHPANDFILYFSIIKVVIAAVILALFSLLMARNLQQPLDRLREASKKLSNGDFNVSVVQELKSNTREFNELAQDFDHMTKEIHSLAEKQRLLIRDVSHELRTPLARQNLVLHLLRKRVGESEQELVTRLEDEAKELNHLISDILEFSRLENARYDKETKRSDLEVLLAPQVERCKIDLRESQSIVFISRVTEPRAYCEDTLVVRCLNNLVGNAIKYAGEDARIEVTLTNQEINGQAYLVMSVSDDGPGIPENKLSDIFNPFTRLDASRDKKLGGYGLGLAIVKESMRMMGGSVNAENRSQGGLTVSLVFRQ
- protein production: failed

Sequence: SEKLAASTEPQGPRPVLGRESVQVPDDQDFRSFRSECEAEVGWNLTYSRAGVSVWVQAVEMDRTLHKIKCRMECCDVPAETLYDVLHDIEYRKKWDSNVIETFDIARLTVNADVGYYSWRCPKPLKNRDVITLRSWLPMGADYIIMNYSVKHPKYPPRKDLVRAVSIQTGYLIQSTGPKSCVITYLAQVDPKGSLPKWVVNKSSQFLAPKAMKKMYKACLKYPEWKQKHLPHFKPWLHPEQSPLPSLALSELSVQHADSLENIDESAVAESREERMGGAGGEGSDDDTSLT
- protein production: not failed
